Measured values published in the nanobody polyreactivity screen of Harvey et al. (2022).

Experiment: yeast display, Sf9 membrane polyspecificity reagent, FACS + sequencing; frameworks hold sequencing errors
Procedure, shortened: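 Galactose-induced (36–48 hours) yeast carrying a synthetic nanobody display library were exposed to 10% biotinylated, detergent-solubilized Sf9 membrane reagent at 4 °C for 1 hour. FACS followed streptavidin microbead enrichment, using low and high (top ~1%) gates for expression (anti-HA) and reagent binding (streptavidin). Colony PCR, MiSeq 2 × 250 sequencing and CDR-length filtering followed. Labels for polyreactivity reflect the gate of origin.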

Row | Sequence | polyreactivity (PSR sort gate)
1 | QVQLVESGAGLVQAGGSLRLSCAASGRNFWYYAMGLYRQAPGKERELVAGITYGDGSTYYADSVKGRFTISRDNAKNTVYLQMNSLKPEDTAVYYCAVDLRSYWFRYGFDYWGQGTQVTVSS | low polyreactivity
2 | QVQLVESGAGLVQAGGSLRLSCAASGRTFDKYAMGWYRQAPGKDRELVAAISGSGGRTYYADSVKGSFTISRDIAKNTVYLQMNSLKPEDTAFYYCAGDTGSYTYYYWGKGTQVTVSS | high polyreactivity
3 | QVQLVESGAGLVQAGGSLRLSCAASGRTFHGYAMGWYRQAPRKERELLARINWSDGRTYYADSVKGRFTISRDNAKNTVFLQMNSLKPEDTAVYYCAADKTVSYAPAWYYYWGQGTQVTVSS | low polyreactivity
4 | QVQLVESGAGLVQAGGSLRLSCAASGRTFWVYSMGWSRQAPGKESELVAAFRRGGITNYADSVKGRFTISRDNAKITVYLQMNCLNPEDTAVYYCATENYGYLTRYYYWGPGTQVTVSS | low polyreactivity
5 | QVQLVESGAGLVQAGGSLRLSCAASGRTIGVYAMGWYRQAPGKERELVAAISWSGGTTYYADSVKGRFTISRDNAKNTVYLQMNSLKPEDTAVYYCAADSYTEVDYWGQGTQVTVSS | low polyreactivity
6 | QVQLVESGAGLVQAGGSLRLSCAASGRTVAWNAMGRYRQAPGKERELVAAISWSGTSTYYADSVKGRFTISRDNAKNTVYLQMNSLKPEDTAVYYCATSVKARQIYGYYYWGQGTQVSVSS | high polyreactivity
7 | QVQLVESGAGLVQAGGSLRLSCAASGSIFFSYAMGWSRQAPGKERELVAGINWSGGSTYADSVKGRFTISRDNAKNTVYLQMNSLKPEDTAVYYCAAKYYSERSRYHYWGQGTQVTVSS | low polyreactivity
8 | QVQLVESGAGLVQAGGSLRLSCAASGSIFGRDTMGWYRQAPGKERELVAAINLRGGSTYYADSVKGRFTISRDNAKNTVYLQMNSLKPEDTAVYYCATDGWKQSAYDYWGQGTQVTVSS | low polyreactivity
9 | QVQLVESGAGLVQAGGSLRLSCAASGSIFIHYAMGWYRQARGKERELVAAITGDGNTTYADSVKGRFTISRDNAQNTVNLQINSLKPEDTAVYYCAVTIVDYYWAFDYWGQGTQVTVSS | low polyreactivity
10 | QVQLVESGAGLVQAGGSLRLSCAASGSIFNYYAMVWYRQAPGKERELFAGITTSGGSTYYADSVKGSFTISRDNAKNSVYLQMKSLKPVDTAVYYCGAYDHISSTYFLDDSWGQGTQVTVSS | low polyreactivity
11 | QVQLVESGAGLVQAGGSLRLSCAASGSIFQPYAMGWYRQAPGKERELVAAISSSGGSTTYADSVKGRFTISRDNAKNTVYLQMNSLKPEDTADYYCAADSADDMGYWGQGTQVTVSS | low polyreactivity
12 | QVQLVESGAGLVQAGGSLRLSCAASGSIFVVYAMGWYRQAPWKERELVAAISWGIGSTYYADSVKGRFTISRDNAKNTVYLQMNSLKPEDTAVYYCAADTDIVLYDYWGQGTQVTVSS | low polyreactivity
13 | QVQLVESGAGLVQAGGSLRLSCAASGSILDEYAMGWYRQPPGKERELVAAISSSGTSTYYADSVKGRFTISRDNAKNTVYLQMNSLKPEDTAVYYCARVKQHTSHRVPGDDYWGQGTQLTVSS | low polyreactivity
14 | QVQLVESGAGLVQAGGSLRLSCAASGSIYTLNAMGWYRQAPGKEMELVAAITSSGTGTYYADSVKGRFTISRDNAKNTVYLQMNSLKPEDTAVYYCAKDRPYWLSYGSWFKFNYWGQGTQVTVSS | low polyreactivity
15 | QVQLVESGAGLVQAGGSLRLSCAASGSTFNHYAMGWYRPAPGKDRELVAAITWSGDSTYYADSVKGRFTISRDNAKNTVYLQMNSLKPEDTAVYDCNTYRIFGYSPYYAGYDYWGQGTQVTVSS | low polyreactivity
16 | QVQLVESGAGLVQAGGSLRLSCAASGSTFPVYAMGWYRQAPGKEREFVAAITYSGARTYYADSVKGRFTISRDNAKNTVYLQMNSLKPEDTAVYYCNAVPYRYLLHGTRCPFSRGYDSWGQGTQVTVSS | high polyreactivity
17 | QVQLVESGAGLVQAGGSLRLSCAASGSTFYFNGMGWYRQAPGKERELVAAISSTGNTYYADSVKGRFTISRDNAKNTVYLQMNSLKPEDTAVNDCLAGSSEAGYYWGHGTQVTVSS | high polyreactivity
